Test system: mouse basophilic leukemia cells transfected with the human FcεRI IgE receptor (hRBL)
Assay: IgE-mediated release of β-hexosaminidase (basophil degranulation) in hRBL cells
Type: cell-based
Details: rIL10 treatment; versus cells treated with Bet v1 alone; serum from seven birch pollen-allergic donors
Experimental: The effect of Pep 1 on IgE-mediated release was studied using mouse basophilic leukemia cells transfected with the human FcεRI IgE receptor (hRBL). The hRBL cells were sensitized with serum from seven patients allergic to birch pollen. The cells were stimulated with the antigen and its interaction with immobilized IgEs resulting in the release of β-hexosaminidase.
When cells were treated with a composition containing Pep 1 to 1 μM (FIG. 10A) or rIL10 (FIG. 10B), the amount of Bet v 1 required to induce the same amount of degranulation was higher than for cells treated with Bet v1 alone (P<0.05). Amount of rBet v 1 (ng/mL) required to induce half the release of β-hexosaminidase using serum from seven birch pollen-allergic donors after treatment with Pep 1 (A) (P<0.05) and rIL10 (B) * P<0.05.

B1: rIL10: recombinant IL-10, used as control (protein, UniProt P22301 19-178, looked up)
Interleukin-10: SPGQGTQSENSCTHFPGNLPNMLRDLRDAFSRVKTFFQMKDQLDNLLLKESLLEDFKGYLGCQALSEMIQFYLEEVMPQAENQDPDIKAHVNSLGENLKTLRLRLRRCHRFLPCENKSKAVEQVKNAFNKLQEKGIYKAMSEFDIFINYIEAYMTMKIRN
- amount of Bet v 1 required to induce the same amount of degranulation: higher
